Experimental data: patent US20140243208, “COMPOSITIONS AND METHODS FOR SELECTING APTAMERS” (Mediomics, LLC, published 2014)
Positions count from the first letter of the chain named.

Assays:
[1] = target: T1, Troponin I (TnI) (Homo sapiens, UniProt P19429 P19429:2-210); assay: ELONA; values only in figure; conditions: tags: coated on ELISA plate; label: hybridized biotin-labeled primer
[2] = target: T2, Alpha-fetoprotein (Homo sapiens, UniProt P02771 P02771:19-609); assay: ELONA; specificity control; conditions: label: hybridized biotin-labeled primer
T2 sequence: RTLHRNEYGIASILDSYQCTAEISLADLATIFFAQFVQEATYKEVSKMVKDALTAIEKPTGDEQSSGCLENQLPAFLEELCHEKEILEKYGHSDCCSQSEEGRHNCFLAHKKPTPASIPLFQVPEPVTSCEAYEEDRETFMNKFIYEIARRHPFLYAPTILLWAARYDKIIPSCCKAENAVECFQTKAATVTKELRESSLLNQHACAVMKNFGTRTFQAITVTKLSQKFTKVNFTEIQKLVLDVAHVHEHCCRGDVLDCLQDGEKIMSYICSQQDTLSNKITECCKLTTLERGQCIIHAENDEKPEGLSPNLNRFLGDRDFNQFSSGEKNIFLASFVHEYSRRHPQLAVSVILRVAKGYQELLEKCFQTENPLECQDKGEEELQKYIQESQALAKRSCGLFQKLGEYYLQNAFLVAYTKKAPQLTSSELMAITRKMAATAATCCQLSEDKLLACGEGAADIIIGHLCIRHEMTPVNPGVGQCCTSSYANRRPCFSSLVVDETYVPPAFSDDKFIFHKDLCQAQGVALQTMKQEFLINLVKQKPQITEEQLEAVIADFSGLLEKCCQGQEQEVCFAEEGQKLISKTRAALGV

[3] = target: T3, C-reactive protein (CRP) (Homo sapiens, UniProt P02741 P02741:19-224); assay: ELONA; specificity control; conditions: chain copies: 5; label: hybridized biotin-labeled primer
T3 sequence: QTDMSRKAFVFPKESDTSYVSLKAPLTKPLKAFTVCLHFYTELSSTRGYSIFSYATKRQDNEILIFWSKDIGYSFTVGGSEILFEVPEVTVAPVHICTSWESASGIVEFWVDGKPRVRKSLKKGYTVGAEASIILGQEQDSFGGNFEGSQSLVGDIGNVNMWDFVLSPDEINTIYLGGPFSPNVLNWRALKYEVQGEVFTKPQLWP

[4] = target: Serum albumin (Homo sapiens, UniProt P02768 P02768:25-609); assay: ELONA; specificity control; conditions: label: hybridized biotin-labeled primer
Serum albumin, sequence (P02768 25-609, one chain of several): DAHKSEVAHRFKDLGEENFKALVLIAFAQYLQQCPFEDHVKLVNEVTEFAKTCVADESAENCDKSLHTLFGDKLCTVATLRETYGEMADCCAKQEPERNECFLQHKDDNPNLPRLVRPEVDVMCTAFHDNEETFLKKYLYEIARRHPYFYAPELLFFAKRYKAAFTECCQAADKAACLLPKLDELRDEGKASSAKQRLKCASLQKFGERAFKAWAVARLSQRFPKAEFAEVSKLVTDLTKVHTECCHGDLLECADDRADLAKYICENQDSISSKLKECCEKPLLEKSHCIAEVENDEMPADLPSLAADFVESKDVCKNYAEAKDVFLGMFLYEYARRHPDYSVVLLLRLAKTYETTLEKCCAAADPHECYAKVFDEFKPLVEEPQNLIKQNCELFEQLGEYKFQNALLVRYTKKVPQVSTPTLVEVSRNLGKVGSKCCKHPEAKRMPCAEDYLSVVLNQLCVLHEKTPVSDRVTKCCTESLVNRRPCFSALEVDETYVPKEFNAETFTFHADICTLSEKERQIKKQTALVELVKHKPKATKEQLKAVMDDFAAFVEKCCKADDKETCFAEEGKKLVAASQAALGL

[5] = target: Interleukin-10 (IL-10) (Homo sapiens, UniProt P22301 P22301:19-178); assay: ELONA; only IL-10-3 and IL-10-6 of 6 showed potential binding; conditions: tags: coated on ELISA plate; chain copies: 2; label: hybridized biotin-labeled primer
Interleukin-10 (IL-10), sequence (P22301 19-178, one chain of several): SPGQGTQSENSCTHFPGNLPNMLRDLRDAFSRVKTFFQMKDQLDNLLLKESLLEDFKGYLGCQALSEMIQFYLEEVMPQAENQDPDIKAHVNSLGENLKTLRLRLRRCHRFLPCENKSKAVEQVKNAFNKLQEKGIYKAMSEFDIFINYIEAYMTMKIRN

[6] = target: T1, Troponin I (TnI); assay: ELONA; specificity control; conditions: tags: coated on ELISA plate; label: hybridized biotin-labeled primer
[7] = target: T1, Troponin I (TnI); assay: ELONA; very similar affinity to the other TNI aptamers; conditions: tags: coated on ELISA plate; label: hybridized biotin-labeled primer

T1 sequence (P19429 2-210, one chain of several): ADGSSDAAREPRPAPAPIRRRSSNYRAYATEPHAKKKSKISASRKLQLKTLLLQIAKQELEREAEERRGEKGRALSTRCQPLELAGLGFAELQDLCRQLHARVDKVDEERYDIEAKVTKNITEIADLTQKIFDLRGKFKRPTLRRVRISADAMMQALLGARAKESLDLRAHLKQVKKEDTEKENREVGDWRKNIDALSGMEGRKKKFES

B1: TNI-CRP1 (ssDNA)
DNA: TAGGTGCTCGACGCTGACCCAGACCCACCAATATATGCCCCGCGGTGTACTCAGTCGCAGGTCATG
binding result [1]: binds

B2: TNI-3 (ssDNA)
DNA: CTGTCGTTAGTGAAGGTTGGCGGCGGACCGGAACGAGCGGCAGTCGCAGTCGACCCCAACGCCATATCACAGACG
binding result [2]: no binding
binding result [3]: no binding
binding result [4]: no binding

B3: TNI-B3 (ssDNA)
DNA: B2 DNA with G35T, G46A
binding result [1]: binds

B4: TNI-B4 (ssDNA)
DNA: CTGTCGTTAGTGAAGGTTGCCCCGGGAACCGAAACTTGCGACCTGTCGTCACCTTGTAACGCCATATCACAGACG
binding result [1]: binds

B5: IL-10-1 (ssDNA)
DNA: TAGGTGCTCGACGCTGACCCAGGGCTACACCTTATCCATTCGCGCGGTACTCAGTCGCAGGTCATG
binding result [5]: no binding

B6: IL-10-4 (ssDNA)
DNA: TAGGTGCTCGACGCTGACCCCCCAGTCACACCTTATGACCGTCCCGCCACTCAGTCGCAGGTCATG
binding result [5]: no binding

B7: TNI-CRP3 (ssDNA)
DNA: TAGGTGCTCGACGCTGACCCAGGGGACACCTATCAATCGTCGTGCGGTACTCAGTCGCAGGTCATG
binding result [1]: binds

B8: TNI-B2 (= TNI-N2) (ssDNA)
DNA: CTGTCGTTAGTGAAGGTTGCAGGCACGCTGCGATATGTCCAGTTGACCCGGTTTGCCAACGCCATATCACAGACG
binding result [1]: binds

B9: TNI-CRP4 (ssDNA)
DNA: TAGGTGCTCGACGCTGACGGGCGACACCGAGGGGGCTGGGGCGCGGGTACTCAGTCGCAGGTCATG
binding result [1]: binds

B10: TNI-B5 (ssDNA)
DNA: CTGTCGTTAGTGAAGGTTGGCGGCGGACCGGAACGAACGGCAGCAGCGACACCGGTAACGCCATATCACAGACG
binding result [1]: binds

B11: IL-10-6 (ssDNA)
DNA: TAGGTGCTCGACGCTGACCGGGCATTGACACCTTATCGTGGGGTGGGGACTCAGTCGCAGGTCATG
binding result [6]: no binding
binding result [3]: no binding
binding result [4]: no binding

B12: TNI-N3 (= TNI-MEDI2) (ssDNA)
DNA: CTGTCGTTAGTGAAGGTTGGCGCAGGAACCTGAACGTTCGACGGGGTCGGCACCTGTAACGCCATATCACAGACG
binding result [1]: binds

B13: IL-10-2 (ssDNA)
DNA: TAGGTGCTCGACGCTGACCCAATCCTGACACACCGTATTAAGCCGCGTACTCAGTCGCAGGTCATG
binding result [5]: no binding

B14: IL-10-3 (ssDNA)
DNA: TAGGTGCTCGACGCTGACCCACGAAAGACACCGCAGTCCCTCCACGCTACTCAGTCGCAGGTCATG
binding result [6]: no binding
binding result [3]: no binding
binding result [4]: no binding

B15: IL-10-5 (ssDNA)
DNA: TAGGTGCTCGACGCTGACCCAGGCACACCTATCCAACTGTCACCGGCCACTCAGTCGCAGGTCATG
binding result [5]: no binding

B16: TNI-4 (ssDNA)
DNA: CTGTCGTTAGTGAAGGTTGCCAAGCGAACTGCGACAGGGGATCCAGGAGACGGCCCCAACGCCATATCACAGACG
binding result [2]: no binding
binding result [3]: no binding
binding result [4]: no binding

B17: TNI-CRP2 (ssDNA)
DNA: TAGGTGCTCGACGCTGACCCAGGACGGCACCTTAACCGCGCGTGGGCTACTCAGTCGCAGGTCATG
binding result [1]: binds

B18: TNI-1 (= TNI-B1, TNI-N1, TNI-MEDI1) (ssDNA)
DNA: CTGTCGTTAGTGAAGGTTGGCAACAACGACCGGGACTAACGGCAGCAGCGACACCGGTAACGCCATATCACAGACG
binding result [2]: no binding
binding result [3]: no binding
binding result [4]: no binding

B19: TNI-2 (ssDNA)
DNA: B18 DNA with C21T
binding result [7]: binds
